What was measured:
[1] = target: Proteus mirabilis ScsC (PmScsC), wild type, lacking the predicted secretion signal (Proteus mirabilis); test: crystal structure; transitional structure: oxidized PmScsC, 2.85 M sodium malonate pH 5.8 with 0.1 M copper(II) chloride, 20 °C; 6 molecules (two trimers) in the asymmetric unit
[2] = target: Proteus mirabilis ScsC (PmScsC), wild type, lacking the predicted secretion signal (Proteus mirabilis); test: crystal structure; extended structure: oxidized PmScsC with 2.5 mM copper(II) chloride, 32% Jeffamine M-600 pH 7, 0.1 M HEPES pH 8, 20 °C; one molecule in the asymmetric unit, trimer generated by crystal symmetry
[3] = target: Proteus mirabilis ScsC (PmScsC), wild type, lacking the predicted secretion signal (Proteus mirabilis); test: cross-linking; 150 μM purified PmScsC in 50 mM HEPES pH 8.5 with 3 mM DTSSP, 30 s–30 min, 23 °C; non-reducing SDS-PAGE, Coomassie; 50 mM DTT as control cleaves the cross-links
[4] = target: Proteus mirabilis ScsC (PmScsC), wild type, lacking the predicted secretion signal (Proteus mirabilis); test: SAXS; reduced PmScsC in 25 mM HEPES pH 7.5, 150 mM NaCl, 1 mM DTT; Australian Synchrotron SAXS-WAXS beamline; also pH 6.0-8.0 and 150-1,500 mM NaCl
[5] = target: Proteus mirabilis ScsC (PmScsC), wild type, lacking the predicted secretion signal (Proteus mirabilis); test: SEC-MALS; Superdex 200 or Superdex 75 10/300 GL, 25 mM Tris, 150 mM NaCl, pH 7.5; 500 μl of 3 mg ml^-1 injected, 1.0 ml min^-1
[6] = target: Selenomethionine-labelled PmScsC (Proteus mirabilis); test: crystal structure; compact structure: selenomethionine-labelled PmScsC, 2.85 M sodium malonate pH 5.8 with 0.1 M cobalt(II) chloride, 20 °C; 24 copies (8 trimers) in the asymmetric unit

Measured: stoichiometry N

Proteus mirabilis ScsC (PmScsC), wild type, lacking the predicted secretion signal (enzyme)
not listed: [6]
3: all other assays above

Selenomethionine-labelled PmScsC (enzyme)
3: [6]

— publication PMC5524982
